Results on 43 molecules are retold here after patent US20250368745A1 (published 2025).

Changes are numbered by the printed parent chain. Numbers in names are those of the source.

To fix the notation:
T1: human IL-18BP (human, UniProt O95998 31-194)
T1 construct: UniProt printed as 095998; also called hIL-18BP
T1 sequence: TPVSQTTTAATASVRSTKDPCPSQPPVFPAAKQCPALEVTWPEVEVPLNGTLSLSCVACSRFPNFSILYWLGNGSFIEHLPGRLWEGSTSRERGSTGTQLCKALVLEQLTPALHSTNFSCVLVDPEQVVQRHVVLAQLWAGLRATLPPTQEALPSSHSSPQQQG

B1: SA301a HC-H52A (antibody, name in Kabat numbering, V domains shown)
VH: QVQLQESGPGLVKPSQTLSLTCTVSGYSITSDYNSHWIRQPPGKGLEWIGYIAYSGSTNYNPSLKSRVTISRDTSKNQFSLKLSSVTAADTAVYYCARNYGSIYVNYFDYWGQGTLVTVSS
VL: EIVLTQSPATLSLSPGERATLSCSASSSVSYMYWYQQKPGQAPRPLIYRTSNLASGIPARFSGSGSGTDFTLTISSLEPEDFAVYYCQQYHSYPTFGGGTKVEIK
notes: IgG1 kappa
B2: SA301a HC-Y53P (antibody, name in Kabat numbering, V domains shown)
VH: B1 VH with A53H, Y54P
VL: B1 VL
notes: IgG1 kappa
B3: SA301a HC-Y53I (antibody, name in Kabat numbering, V domains shown)
VH: B1 VH with A53H, Y54I
VL: B1 VL
notes: IgG1 kappa
B4: SA301a HC-H52Y (antibody, name in Kabat numbering, V domains shown)
VH: B1 VH with A53Y
VL: B1 VL
notes: IgG1 kappa
B5: SA301a HC-S54V (antibody, name in Kabat numbering, V domains shown)
VH: B1 VH with A53H, S55V
VL: B1 VL
notes: IgG1 kappa
B6: SA301a HC-Y53E (antibody, name in Kabat numbering, V domains shown)
VH: B1 VH with A53H, Y54E
VL: B1 VL
notes: IgG1 kappa
B7: SA301a HC-Y53S (antibody, name in Kabat numbering, V domains shown)
VH: B1 VH with A53H, Y54S
VL: B1 VL
notes: IgG1 kappa
B8: SA301a HC-H52P (antibody, name in Kabat numbering, V domains shown)
VH: B1 VH with A53P
VL: B1 VL
notes: IgG1 kappa
B9: SA301a HC-Y53V (antibody, name in Kabat numbering, V domains shown)
VH: B1 VH with A53H, Y54V
VL: B1 VL
notes: IgG1 kappa
B10: SA301a HC-Y53A (antibody, name in Kabat numbering, V domains shown)
VH: B1 VH with A53H, Y54A
VL: B1 VL
notes: IgG1 kappa
B11: SA301a HC-Y53L (antibody, name in Kabat numbering, V domains shown)
VH: B1 VH with A53H, Y54L
VL: B1 VL
notes: IgG1 kappa
B12: SA301a HC-S54P (antibody, name in Kabat numbering, V domains shown)
VH: B1 VH with A53H, S55P
VL: B1 VL
notes: IgG1 kappa
B13: SA301a HC-Y53M (antibody, name in Kabat numbering, V domains shown)
VH: B1 VH with A53H, Y54M
VL: B1 VL
notes: IgG1 kappa
B14: SA301a HC-S54N (antibody, name in Kabat numbering, V domains shown)
VH: B1 VH with A53H, S55N
VL: B1 VL
notes: IgG1 kappa
B15: SA301a HC-S54Q (antibody, name in Kabat numbering, V domains shown)
VH: B1 VH with A53H, S55Q
VL: B1 VL
notes: IgG1 kappa
B16: SA301a HC-S54M (antibody, name in Kabat numbering, V domains shown)
VH: B1 VH with A53H, S55M
VL: B1 VL
notes: IgG1 kappa
B17: SA301a HC-Y53G (antibody, name in Kabat numbering, V domains shown)
VH: B1 VH with A53H, Y54G
VL: B1 VL
notes: IgG1 kappa
B18: SA301a HC-Y53H (antibody, name in Kabat numbering, V domains shown)
VH: B1 VH with A53H, Y54H
VL: B1 VL
notes: IgG1 kappa
B19: SA301a HC-Y53R (antibody, name in Kabat numbering, V domains shown)
VH: B1 VH with A53H, Y54R
VL: B1 VL
notes: IgG1 kappa
B20: SA301a HC-Y53D (antibody, name in Kabat numbering, V domains shown)
VH: B1 VH with A53H, Y54D
VL: B1 VL
notes: IgG1 kappa
B21: SA301a HC-Y53F (antibody, name in Kabat numbering, V domains shown)
VH: B1 VH with A53H, Y54F
VL: B1 VL
notes: IgG1 kappa
B22: SA301a HC-Y53T (antibody, name in Kabat numbering, V domains shown)
VH: B1 VH with A53H, Y54T
VL: B1 VL
notes: IgG1 kappa
B23: SA301a HC-S54G (antibody, name in Kabat numbering, V domains shown)
VH: B1 VH with A53H, S55G
VL: B1 VL
notes: IgG1 kappa
B24: SA301a HC-S54Y (antibody, name in Kabat numbering, V domains shown)
VH: B1 VH with A53H, S55Y
VL: B1 VL
notes: IgG1 kappa
B25: SA301a HC-Y53K (antibody, name in Kabat numbering, V domains shown)
VH: B1 VH with A53H, Y54K
VL: B1 VL
notes: IgG1 kappa
B26: SA301a HC-S54R (antibody, name in Kabat numbering, V domains shown)
VH: B1 VH with A53H, S55R
VL: B1 VL
notes: IgG1 kappa
B27: SA301a HC-H52T (antibody, name in Kabat numbering, V domains shown)
VH: B1 VH with A53T
VL: B1 VL
notes: IgG1 kappa
B28: SA301a HC-Y53Q (antibody, name in Kabat numbering, V domains shown)
VH: B1 VH with A53H, Y54Q
VL: B1 VL
notes: IgG1 kappa
B29: SA301a HC-H52K (antibody, name in Kabat numbering, V domains shown)
VH: B1 VH with A53K
VL: B1 VL
notes: IgG1 kappa
B30: SA301a HC-S54L (antibody, name in Kabat numbering, V domains shown)
VH: B1 VH with A53H, S55L
VL: B1 VL
notes: IgG1 kappa
B31: SA301a HC-S54T (antibody, name in Kabat numbering, V domains shown)
VH: B1 VH with A53H, S55T
VL: B1 VL
notes: IgG1 kappa
B32: SA302a HC-N33bT (antibody, V domains shown)
VH: B1 VH with N34T, S35A, A53H
VL: B1 VL
B33: SA302a HC-H35L (antibody, V domains shown)
VH: B1 VH with S35A, H36L, A53H
VL: B1 VL
B34: SA302a HC-N33bP (antibody, V domains shown)
VH: B1 VH with N34P, S35A, A53H
VL: B1 VL
B35: SA302a HC-N33bK (antibody, V domains shown)
VH: B1 VH with N34K, S35A, A53H
VL: B1 VL
B36: SA302a HC-N33bH (antibody, V domains shown)
VH: B1 VH with N34H, S35A, A53H
VL: B1 VL
B37: SA302a HC-H35R (antibody, V domains shown)
VH: B1 VH with S35A, H36R, A53H
VL: B1 VL
B38: SA302a HC-H35G (antibody, V domains shown)
VH: B1 VH with S35A, H36G, A53H
VL: B1 VL
B39: SA302a HC-H35D (antibody, V domains shown)
VH: B1 VH with S35A, H36D, A53H
VL: B1 VL
B40: SA302a HC-N33bV (antibody, V domains shown)
VH: B1 VH with N34V, S35A, A53H
VL: B1 VL
B41: SA302a HC-N33bA (antibody, V domains shown)
VH: B1 VH with N34A, S35A, A53H
VL: B1 VL
B42: SA302a HC-N33bQ (antibody, V domains shown)
VH: B1 VH with N34Q, S35A, A53H
VL: B1 VL
B43: SA302a HC-H35N (antibody, V domains shown)
VH: B1 VH with S35A, H36N, A53H
VL: B1 VL

The target in one experiment is T1, human IL-18BP. Kind of experiment: BLI, apparent KD.
Take B1: the Kd was found to be 0.24 nM.

Take B2: the Kd was determined as 0.38 nM.

In the case of B3, the Kd was found to be 1.87 nM.

In the case of B4, the Kd is 0.79 nM.

For the molecule B5, the Kd was found to be 0.55 nM.

As to B6, the Kd was 5.06 nM.

For the molecule B7, the Kd came to 2.64 nM.

As for B8, the Kd worked out at 0.01 nM.

On to B9, for which the Kd is 2.16 nM.

B10: the Kd turned out to be 2.6 nM.

On to B11, for which the Kd was determined as 2.42 nM.

For B12, the Kd was determined as 1.11 nM.

For the molecule B13, the Kd stood at 0.4 nM.

As for B14, the Kd was found to be 0.36 nM.

As to B15, the Kd was 2.31 nM.

For B16, the Kd is 1.94 nM.

As to B17, the Kd amounted to 1.86 nM.

B18: the Kd was determined as 2.41 nM.

Regarding B19, the Kd turned out to be 7.08 nM.

B20: the Kd worked out at 3.2 nM.

As for B21, the Kd is 0.39 nM.

As for B22, the Kd was 1.95 nM.

Consider B23, for which the Kd was determined as 0.33 nM.

For the molecule B24, the Kd was 4.66 nM.

With B25, the Kd is 3.16 nM.

B26: the Kd was 4.06 nM.

B27: the Kd was found to be 1.92 nM.

As for B28, the Kd was determined as 1.81 nM.

B29: the Kd was 0.01 nM.

In the case of B30, the Kd is 2.64 nM.

For B31, the Kd is 1.14 nM.

In the next experiment the target is T1, human IL-18BP. Kind of experiment: BLI, apparent KD. This is another data set of the same source. (In general: In BLI a coated tip is dipped into the sample, and binding shifts an interference pattern.)
With B32, the Kd was found to be 1.63 nM.

Take B33: the Kd turned out to be 1.74 nM.

Take B34: the Kd worked out at 6.05 nM.

For B35, the Kd is 1.12 nM.

Take B36: the Kd was found to be 2.91 nM.

Consider B37, for which the Kd stood at 1.18 nM.

As to B38, the Kd was 2.05 nM.

For the molecule B39, the Kd was found to be 4.23 nM.

Regarding B40, the Kd is 1.36 nM.

Regarding B41, the Kd is 5.45 nM.

B42: the Kd is 6.01 nM.

Regarding B43, the Kd stood at 3.02 nM.
